# Source: the nanobody polyreactivity screen of Harvey et al. (2022)
# Test: yeast display, Sf9 membrane polyspecificity reagent, FACS + sequencing; frameworks hold sequencing errors
# In short: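 A synthetic nanobody library was expressed on Saccharomyces cerevisiae BJ5465 by galactose induction for 36–48 hours. The library was stained for 1 hour at 4 °C with 10% biotinylated, detergent-solubilized Sf9 membrane reagent and enriched with streptavidin microbeads before FACS. Low and high (top ~1%) gates were set on anti-HA fluorescence for expression and streptavidin fluorescence for reagent binding, and each polyreactivity label reflects the gate of origin.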
row,Sequence,polyreactivity (PSR sort gate)
1,QVQLVESGGGLVQAGGSLRLSCAASGSTFGYYTMGWYRQAPGKERELVAAITWSGGSTYYADSVKGRFTISRDNAKNSVYLQINSLKPEDSSVYYCAADDYWTPFGYWGQGTQVTVSS,low polyreactivity
2,QVQLVESGGGLVQAGGSLRLSCAASGRIFSRNTMGWYRQAPGKEREIVAAISQSGGRTYYADSVKGRFTISRDNAKNPVYLQMNSLNPEDTEVYYCNAQFARSSGFNYWGQGTQVTVSS,high polyreactivity
3,QVQLVESVGGLVQAGASLRLSCAASGSTFDYYAMGSYRQAPGKERELVAAISRTGGRTYYADSVKGRFTISRDNAKNTVYLQMNSLKPEDTAVYYCNAVTRIGGGDYDYWGQGTQVTVSS,low polyreactivity
4,QVQLVESGGGLVQAGGSLRLSCAASGRIFKYYTMGWYRQAPGKERELVARISSSGGSTYYADSVKGRFTISRDNAKNTVYLQMNSLKPEDTAVYYCNTRAAYHQTTHKYERDYWGQGSQVTVSS,low polyreactivity
5,QVQLVESGGGLVQAGGSLRLSCAASGFTFRYYTMGWYRQAPGKERELVAAITSSGGNTYYADSVKGRFTISRDNAKYTVYLQMNSLKPEDTAVYYCAADGRYYAVFRYDYWGQGTQVTVSS,low polyreactivity
6,QVQLVESGGGLVQAGGSLRLSCAASGRIFKRYAMGWYRQAPGKERELVAAITRSGGSMYYADSVKGRFTISRDNAKNTVYLQMNSLKPEDTAVYYCNKVYGPHPERAVYYEGDYWGQGTQVTVSS,high polyreactivity
7,QVQLVESGGGLVQAGGSLRLSCAASGSIFQRYAMGWYRQAPGKERECVAAISGRGGSTYYADSVKGRFTISRDNAKNTVYLQMNSLKPEDTAVYYCAADSSRFYGRPRYYYWGQGTQVTVSS,high polyreactivity
8,QVQLVESGGGLVQAGGSLRLSCAASGSTFILYAMGWYRQAPGKERELVAAITSRGGSTYYADSVKGRFTISRDNAKNTVYLQMNSLKPEDTAVYYCAADNGYIGPKPYFLAYPVGYDSWGQGTQVTVSS,low polyreactivity
9,QVQLVESGGGLVQAGGSLRLSCAASGRIFAYYAKGWYRQAPGKERELVAAISRSGVSTYYADSVKGRFTISRDNAKNTVYLQMNSLKPEDTAVYYCAARWRSGFTSGDYWGQGTQVTVSS,low polyreactivity
10,QVQLVESGGGLVQAGCSLRLSCAASGRIFHLYAMGWYTQAPGKERELVAAITGRGGSTYYADSVKGRFTISRDNAKNTVYLQINCLKPEDTAVYYCASYEFGFLRYYSGRSYYYWGQGTQVTVSS,high polyreactivity
11,QVQLVESGGGLVQAGGSLRLSCAASGRTFDSNAMGWYRQAPGKERELVAAIYADSVKGRFTISRDNAKNTVYLQMNSLKPEDTAVYYCAAETYSGQTYLGEYDYWGQGTEVTVSS,low polyreactivity
12,QVQLVDSGGGLVQAGGSLRLSCAASGRTFGYNAMGCYRQATGKERELVAAISSSGGSTYYADSVKGRFTISRDYAKNTVYLQMNSLKPEDTAVYYCATQGYSWAHGSDFWGQGTQVTVSS,low polyreactivity
13,QVQLVESGGGLVQAGGSLRLSCAASATFYYYAMGWSRQAPGKERELVAAISYSGGRTYYADSVKGRFTISRDNAKNTVYLQMNSLKPEDTAVYYCNALYRKTPSYGADDYWGQGTQVTVSS,high polyreactivity
14,QVQLVESGGGLVQAGGSLRLSCAASGSIFFSYAMGWYRQAPGKERELVAGINWSGGSTYADSVKGRFTISRDNAKNTVYLQMNSLKPEDTAVYYCAAKYYSERSRYHYWGQGTQVTVSS,low polyreactivity
15,QVQLVESGGGLVQAGGSLRLSCAASGSTFQYYAMGWYRQAPGKERELVAAISSGGSTYYADSVKGRFTISRDIAKNTVYLQMNSLKPEDTAVYYCAAYEYDGDYGYCGQGTQVTVSS,high polyreactivity
16,QVQLVESGGGLVQAGGSLRLSCAASGSTFIVYGMGWYRQAPGKEREFVAAITTRSGSTYYADSVKGRFTISRDNAKNTVYLQMNSLKPEDTAVYYCAAVPGTPRHDYWGQGTQVTVSS,high polyreactivity
17,QVQLVESGGGLVQAGGSLRLSCAASGYTIYSYAMGWYRQAPGKERELVAAITESGARTYYADSVKGRFTISRDNAKNTVYLLMNSLKPEDSAVYYCAADYAWPLRVTGDYWGQGTQVTVSS,low polyreactivity
18,QVQLVESGGRLVQAGGSLRLSCAASGRIFTYNAMGWYTQAPGKERELVAGITRRGGSTYYADSVKGRFTISRDNAKNTVYLQMNSLKPEDTAVYYCAATYPNARRYEYWGQGTQVTVSS,high polyreactivity
19,QVQLVESGGGLVQAGGSLRLSCAAYGFTFYPYAMGWYRQAPGKEREVVAASNSGGSTYYADSVKGRFTISRDNAKNTVYLQMNSLKPEDTAVYYCSAYGKRGAVAFYYWGQGTQVTVSS,high polyreactivity
20,QVQLVESGGGIVQAGGSLRLSCAASGSTFWFNDMGWYRAAPGKEREFVAAISSSGGSTYYADSVKGRFTISRDNAKNTVYVQMNSLKPEDTAVYYWAVEVVRDYRYADWGQGTQVTVSS,low polyreactivity
21,QVQLVESGGGLVQAGGSLRLSCAASGRNFPDNTMGWYRHAPGKERELVATIAWIGASTYYADSEKGRFTISRDNAKNTVYLQMNSLKPEDTAVDYCAGTTSHRWYGFNSKYDFDYWGQGTQVTVSS,low polyreactivity
22,QVQLVESGGGLVQAGGSLRLSCAASGLTFKYYAMGWYRQAPGKERELVAAISWNGDRTYYADSVKGRFTISRDNAKNTVYLQMNSLKPEDTAVYYCATKFYFSTSIAGGYWGQGTQVTVSS,high polyreactivity
23,QVQLVESGGGLVQAGGSLRLSCAASGRIFRRNAMGWYRQAPGKERDLVAAITYSGTRTYYADSVKGRFTISRDNAKITVYLQMNSLKPEDTAVYYCNAGVGYFVGTYYGFLPYDYWGQGTQVTVSS,high polyreactivity
24,QVQLVESGGGLVQAGGSLRLSCAASGFIFGKNDMGWYRQAPGKERELVAAITIGGSTNYADSVKGRFTISRDNAKNTVYLQMNSLTPEDTAVYYCGADATSLYNYWGLGTQVTVSS,low polyreactivity
25,QVQLVESGGGLVQAGGSLRLSCAASGITFSYYAMGWYRQAPGKERELVAAINGGGSRTYYADSVKGRFTISRDNAKNTVYLQMNSLKPEDTAVYYCAAYSGQARGYDYWGQGTQVTVSS,high polyreactivity
26,QVQHVESGGGLVQAGGSLRLSCAASGRTFVTYAMGWYRQAPGKERELVAAISKRGSRTYYADSVKGRFTISRDNAKNTVYLQMNSLKPEDTAVYYCNADPYRTSYDYWGQGTQVTVSS,high polyreactivity
27,QVQLVESGGGLVQAGGSLRLSCAAYGRIFGWYAMGWYRQAPGKERELVAAISSSTSTYYADSVKGRFTISRDNEKNTVYLQMNSLKPEDTAVYYCNADWYYQRVQYYWYRYDYWGQGTQVTVSS,high polyreactivity
28,QVQLVESGGGLVQAGGSLRLSCAASGRIFRPYAMGWYRQAPGKERELVASMSWRGSSTYYADSVKGRFTISRDNAQNTVYLQMNSLKPEDTAVYYCAARRYPTSGYGYWGQGTQVTVSS,high polyreactivity
29,QVQLVESGGGLVQAGGSLRLSCAASGFIISGYAMGWYRQAPGKERELVAAISWSGGRTYYADSVKGRFTISRDNAKNTVYLQMKSLKPEDTAVYYFAADGYYRDWYGYGYWGLGTQVTVSS,high polyreactivity
30,QVQLVESGGGLVQAGGSLRLSCAASGSTFIRYAMGWYRQAPGKERELVAAIRRTGASTYYADSVKGRFTISRDNAKNTVYLQMNSLKPEDTAVYYCAARYSIWSWNGLDYWGQGTQVTVSS,high polyreactivity
